Assays:
[1] = PK2 administration in GTT, wild type mice; type: in vivo; conditions: 10 nmol/kg and 200 nmol/kg, wild type mice (FIG. 8)
Description: The compound (3R)-1-Benzyl-N-(9-chloro-3,4-dihydro-2H-1,5-benzodioxepin-7-ylmethyl)-N-isobutyl pyrrolidine-3-carboxamide (3Cl-R-PLP) was dissolved in PEG-400 and then resuspended in water with 8% final concentration of PEG-400.8% PEG-400 in water without drug was used as vehicle. Mice were fed with regular chow. Drug or vehicle was gavaged to mice that were fasted overnight. Two hours later, glucose (2 g/kg of body weight) was injected i.p. and whole venous blood obtained from the tail vein at 0, 15, 30, 90 and 120 min after the injection was measured for glucose by using an automatic glucometer (one Touch, Lifescan, Daly, Calif.).
The inventors next tested the effect of PK2 administration on the performance of GTT test in wild type mice. […] This is consistent with observations that PK2-deficient mice have enhanced glucose clearance abilities.

[2] = Glucose-induced insulin secretion in vivo after PK2 administration; design: species or system mice; conditions: glucose i.p., 30 min (FIG. 10)
Description: To understand whether insulin is directly involved, the inventors examined whether PK2 and/or its two cognate receptors, PKR1 and PKR2, are expressed in pancreas beta cells. […] The inventors tested whether this glucose-induced insulin secretion was inhibited by PK2. […] Consistent with the inhibitory effect of PK2 on insulin secretion, PK2-deficient mice have increased circulating insulin level. It is likely that at least some of glucose-lowering effects of PK2 antagonists were due to their abilities to increase insulin secretion as depicted in FIG. 11.

[3] = system: MIN6 cells; assay: Glucose-stimulated insulin secretion in MIN6 cells; type: cell-based; conditions: 15 mM glucose, PK2 added (FIG. 12A)
Description: (§1) To investigate the direct effects of PK2 on the insulin secretion, the inventors performed a glucose-stimulated insulin secretion on β-cell like MIN6 cells. […] To specifically test the effects of endogenous PK2, the inventors treated MIN6 cells with 4Ind-3Cl-R-BMA along with low and high concentrations of glucose. […] As PK2 receptors have been reported coupling to Gi or Gq proteins, the inventors examined the possible signaling transduction of PK2 receptor in MIN6 cells.

[4] = system: MIN6 cells; assay: Forskolin-induced cAMP levels in MIN6 cells; type: cell-based; conditions: PK2 (FIG. 12C)
Description: as §1

[5] = system: MIN6 cells; assay: Cytosolic calcium mobilization in MIN6 cells; type: cell-based
Description: as §1

B1: PK2: "Mature human prokineticins (PK1 and PK2) contain 86 and 81 amino acids, respectively"; "recombinant PK2" used as agonist (protein, UniProt Q9HC23 28-129, looked up)
Prokineticin-2: AVITGACDKDSQCGGGMCCAVSIWVKSIRICTPMGKLGDSCHPLTRKNNFGNGRQERRKRKRSKRKKEVPFFGRRMHHTCPCLPGLACLRTSFNRFICLAQK
In the case of B1, the “rate of glucose clearance in GTT” value [1] is reported as “significantly reduced the rate of glucose clearance”, the “glucose-induced elevation of circulating insulin” value [2] is reported as “significantly inhibited glucose-induced elevation of insulin in circulation” and the “insulin secretion induced by glucose” value [3] is reported as “significantly suppressed the insulin secretion”. The “forskolin-induced cAMP levels” value [4] was “significantly inhibited forskolin-induced cAMP levels” and the cytosolic calcium mobilization [5] was “didn't elicit cytosolic calcium mobilization”.
